These results are taken from the nanobody polyreactivity screen of Harvey et al. (2022).

A short description of the data set: yeast display, Sf9 membrane polyspecificity reagent, FACS + sequencing; frameworks hold sequencing errors. The method, boiled down:
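Galactose induction of a Saccharomyces cerevisiae BJ5465 synthetic nanobody display library ran 36–48 hours. The cells were then stained for 1 hour at 4 °C with 10% biotinylated, detergent-solubilized Sf9 membrane reagent, pulled down on streptavidin microbeads and FACS-sorted into low and high (top ~1%) gates on expression and reagent-binding fluorescence. Labels for polyreactivity follow the gate of origin.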
“QVQLVESGGGLVQAGGSLRLSCAASGRTSRSYAMGWYRQAPGKERELVAAISWSGGSTYYADSVKGRFTMSRDNAKNTVYLQMNSLKPEDTAGYYCNALTLAGYDYWGQGTQVTVSS”: the “polyreactivity (PSR sort gate)” value is on record as “high polyreactivity”.
The entry for “QVQLVESGGGLVQAGGSLRLSCAASGRTSSINAMGWYRKAPGKERELVAVITGGGRTSYADSVKGRFTISRDNAKNTVYLQMNSLKPEDTAVYYCNATRSYYGYYYWGQGTQVTVSS” is “high polyreactivity”; for “QVQLVESGGGLVQAGGSLRLSCAASGRTSTIYTMGWYRQAPGKEREIVASISAGAGTYYADSVKGRFTISRDNAKNTVYLQLNSLKPEDTAVYYCNASVYWRSTRRHQMDYWGQGTQVTVSS” it is “high polyreactivity”.
As for “QVQLVESGGGLVQAGGSLRLSCAASGRTSVKYAMGWSRQAPGKERELVATIRYRTASTYYADSVKGRFTISRDNAKNTVYLQMNSPKPEDTAVYYCAAATSYASPWWYLYYYWGQGSQVTVSS”, the entry is “high polyreactivity”; as for “QVQLVESGGGLVQAGGSLRLSCAASGRTSVLYAMGWYRQAPWKEREFVAAITWNSGSTYYADSVKGRFTISRDNAKNTVYLQMNSLKPEDTAVYYCNADYYFSSYRSTYDYWGQGTQVTVSS”, “low polyreactivity”; as for “QVQLVESGGGLVQAGGSLRLSCAASGRTSVRNAMGWYRQAPGKERELVAAISRRGTRTYYADSVKGRFTISRDNAKNTVYLQMNSLKPEDTAVYYCAASNGYQAVTYDYWGQGTQVTVSS”, “high polyreactivity”.
The entry for “QVQLVESGGGLVQAGGSLRLSCAASGRTSVWYTMGWYRQAPGKEREFVASITGSGTYYADSVKGRFTISRDNAKNTVYLQMNSLKPEDTAVYYCAKRGYGYWGQGTQVTVSS” is “high polyreactivity”; for “QVQLVESGGGLVQAGGSLRLSCAASGRTSYLYALGWYRQAPGKERELVAAISRGVGSTYYADSVKGRFTISRDNAKNTVYLQMHSLKPEDTAVYYCAAYRYTPWMYYWGQGTQVTVSS” it is “high polyreactivity”; for “QVQLVESGGGLVQAGGSLRLSCAASGRTSYTYVMGWYRQAPGTERELVAAIRLSGGNTYYADSVKGRFTISRDNAKNTVYLQMNSLKPEDTAVYYCAAHYWRHRKAYGYWGQGTQVTVSS” it is “high polyreactivity”.
For the sequence “QVQLVESGGGLVQAGGSLRLSCAASGRTSYVYAMGWYRQAPGKERELVAAITSSGASTYYADSVKGRFTISRDNAKNTVYLQMNSLKPEDTAVFYCAAETYPVWGVAFYYWGQGTQVTVSS”, the “polyreactivity (PSR sort gate)” value was “high polyreactivity”.
The entry for “QVQLVESGGGLVQAGGSLRLSCAASGRTVTYYVMGWYRQAPGNERELVARITSSGITYYADSVKGRFTISRDNAKNTVYLQMNSLKPEDTAVYYCAKRRNAWTPYRFDYWGQGTQVTVSS” is “high polyreactivity”.
As for “QVQLVESGGGLVQAGGSLRLSCAASGRTVVNAMGWYRQAPGKERELVAAISSNGGRTYYADSVKGRFTISRDNAKNTVYLQMNSLKPEDTAVYYCATRWIKGRKMDYWGQGTQVTVSS”, the entry is “high polyreactivity”; as for “QVQLVESGGGLVQAGGSLRLSCAASGRTVVNAMGWYRQAPGKERELVAAISSNGGRTYYADSVKGRFTISRDNAKNTVYLQMTSLKPEDTAVYYCAKGLGIRPTYYYWGQGTKVTVSS”, “high polyreactivity”.
The entry for “QVQLVESGGGLVQAGGSLRLSCAASGRTVYANAMGWYRQAPGKERELVAAISTGGDGTYYADSVKGRFTISRDNAKNPVYLQMNSQKPEDTAVYYCAVRHRASGMLYDYWGQGTQVTVSS” is “low polyreactivity”; for “QVQLVESGGGLVQAGGSLRLSCAASGRTYFDYTMGWYRQAPGKERELVAAINRSGVSTYYADSVKGRFTISRDNAKNTVYLQMNSLKPEDTAVYYCNADRGPPKLEYDPVIMDYWGQGTQVTVSS” it is “low polyreactivity”; for “QVQLVESGGGLVQAGGSLRLSCAASGRTYGYAMGWYRQAPGKERELVARNTWRGGSTSYADSVKGRFTISRDNAKNTVYLQMNSLKPEDTAVYYCAATYGTGRRSKYGYWGQGTQVTVSS” it is “high polyreactivity”.
For “QVQLVESGGGLVQAGGSLRLSCAASGRTYHAYAMGWYRQAPGKGRELVAAITRTGTTHYADSVKGRFTISRDNAKNTVYLQMTSLKPEDTAVYYCAAQHVRVDAQFVLQGYDYWGQGTQVTVSS”, the “polyreactivity (PSR sort gate)” value is “low polyreactivity”.
The entry for “QVQLVESGGGLVQAGGSLRLSCAASGRTYIVNVMGWYRQAPGKERELVAAINWSTGRTYYADSVKGRFTISRDNAKNTVYLQMNSLKPEDTAVYYCAAEEFDSFWWGYYEMDYWGQGTQVTVSS” is “high polyreactivity”; for “QVQLVESGGGLVQAGGSLRLSCAASGRTYPYAMGLYRQAPGKEREFVAAITSSGGSTYYADSVKGRFTISRDNAKNTVYLQMNSLKPEDTAVYYCAAEYYFLEYDYWGQGTQVTVSS” it is “low polyreactivity”.
The entry for “QVQLVESGGGLVQAGGSLRLSCAASGRTYQDNAMGWYRQEPGTERELVAAISFNSDSTYYADSVKGRFTISRDNAKNTVYLQMNSLKPEDTAVYYCAAQVVPTLYLRPLDYWGQGTQVTVSS” is “low polyreactivity”; for “QVQLVESGGGLVQAGGSLRLSCAASGRTYRAYTMGWYRQAPGKERELVAAISTPGGSTYYADSVKGRFTISRDNAKKTVYLQMIILKPEDNAVYYCAAGTFYYWLSYDYWGQGTKVTVSS” it is “low polyreactivity”; for “QVQLVESGGGLVQAGGSLRLSCAASGRTYRVYAMGWYRQAPGKERELVASITRGGGTYADSVKGRFTISRDNAKNTVYLQMNSLKAEDTAVYYCNARWHRSTGGRQRYDYWGQGTQVTVSS” it is “high polyreactivity”.
For “QVQLVESGGGLVQAGGSLRLSCAASGRTYSIYAMGLYRQEPGNEREMVAAISNGGRTKYADSVKGRFTISRDNAKNTVYLQMNSLKPEDTAVYYCAASSYTNKRYPSPYDYWGQGTQVTVSS”, the “polyreactivity (PSR sort gate)” value is given as “high polyreactivity”.
Consider “QVQLVESGGGLVQAGGSLRLSCAASGRTYVRNAMGWYRQAPGKERELVAGITRSGGSTYYADSVKGRFTISRDNAKNTVYLQMNSLKPEDTAVYYCAKRYDVYVGTVRPYDYWGQGTQVTVSS”, for which the “polyreactivity (PSR sort gate)” value is on record as “low polyreactivity”.
As for “QVQLVESGGGLVQAGGSLRLSCAASGSARYAMGWYRQAPGKERELVAAISRRGGSTFYADSVKGRFTISRDNAKNTVYLQMNSLKPEDTAVYYCAADGRISYDYWGQGTQVTVSS”, the entry is “low polyreactivity”; as for “QVQLVESGGGLVQAGGSLRLSCAASGSFFRNYAMGWYRQAPGKERELVAAISRRGTSTFYADSVKGRFTISRDNAMNTVYLQMNSLKPEDTAVYYCAARGSAGGDYGYWGQGTQVTVSS”, “high polyreactivity”; as for “QVQLVESGGGLVQAGGSLRLSCAASGSIAGNAMGWYRQAPGKERELVATITRRGGRTYYADSVKGRFTISRDNAKNTVYLQMNSLKPEDTAVYYCNKVSYARGYDYWGQGTQVTVSS”, “high polyreactivity”.
The entry for “QVQLVESGGGLVQAGGSLRLSCAASGSICGKNGMGWYRQAPGKERELVAAITSGGGNTYYADSVKGRFTISRDNAKNTVYLQMNSLKPEDTAVDYCAKGYRAYYWGFNYWGQGTQVTVSS” is “high polyreactivity”.
For “QVQLVESGGGLVQAGGSLRLSCAASGSICRQYTMGWYRQAPGKERELVAGINQSGDSTSADSVKGRFTISRDNAKNTVYLQMNSLKPEDTAVYYCNADPRVWYRNIYPGRNYDYWGQGTQVTVSS”, the “polyreactivity (PSR sort gate)” value is reported as “low polyreactivity”.
The entry for “QVQLVESGGGLVQAGGSLRLSCAASGSICRYYDMGWYRQAPGKERELVAAISRSGGSTYYADSVKGRFTISRDNAKNTVYLQMNSLKPEDTAVYYCNVDQFRYREDDYWGQGTQVNVSS” is “high polyreactivity”.
As for “QVQLVESGGGLVQAGGSLRLSCAASGSIFAAYTMGWYRQAPGKERVFVAAITYTGGSTYYADSVKGRFTISRDNAKNTVYLQMNSLKPEDTAVYYCAARGRLCQGYYYWGQGTQVTVSS”, the entry is “low polyreactivity”; as for “QVQLVESGGGLVQAGGSLRLSCAASGSIFAAYTMGWYRQAPGNERELVAAISVSTVSTYYADSVKGRFTISRDNAKNTVYLQMNSLKPEDTAVYYCNADATDSYPEKDEHESWGQGTQVTVSS”, “low polyreactivity”; as for “QVQLVESGGGLVQAGGSLRLSCAASGSIFADNTMGWSRQAPGKERELVAAITSSGRTYYADSVTGRFTISRDNAKNTVYLQMKSLKPEDTAVYYCAAVIYFHDYSPYYYWGQGTQVTVSS”, “high polyreactivity”.
The entry for “QVQLVESGGGLVQAGGSLRLSCAASGSIFADYAMGWYRQAPGKERELVAAISYNGDSTYYADSVKGRFTISRDNAKTTVYLQMNSLKPEDTAVYNCAADGAYGGYDYWGQGTQVTVSS” is “low polyreactivity”; for “QVQLVESGGGLVQAGGSLRLSCAASGSIFADYTMGWYRQAPGKEREVVAAITSGGSTYYADSVKGRFTISRDNAKNTVYLQMNSLKPEDTAVYYCAAYYGGRGYWGQGTQVTVSS” it is “low polyreactivity”; for “QVQLVESGGGLVQAGGSLRLSCAASGSIFAGNAMGWYRQAPGKERELVAAISWRGGSTYYADSVKGRFTISRDNAKNTVYLQMNSLKPEDTAVYYCAATWYDRRTFFYKYDYWGQGTQVTVSS” it is “low polyreactivity”.
In the case of “QVQLVESGGGLVQAGGSLRLSCAASGSIFAGYAMGWYRQAPGKERELVAAISKSAGSTYYADSVKGRFTISRDNAKNTVYLQMNSLKPEDTAVYYCAARTFNTYPRYYYWGQGTQVTVSS”, the “polyreactivity (PSR sort gate)” value is on record as “high polyreactivity”.
In the case of “QVQLVESGGGLVQAGGSLRLSCAASGSIFAGYAMGWYRQAPGKERELVAVISSTGSTYYADSVKGRFTISRDNAKNTVYLQMNSLKPEDTAVYYCAAGDVGYSYYRIYSRMDYWGQGTQVTVSS”, the “polyreactivity (PSR sort gate)” value is on record as “low polyreactivity”.
The entry for “QVQLVESGGGLVQAGGSLRLSCAASGSIFAGYTMGWSRQAPGKERELVAVISTGGRTKYADSVKGRFTISRDNAKNTVYLQMNSLKPEDTAVYYCAADSRGWSLDGDYWGQGTQVTVSS” is “low polyreactivity”; for “QVQLVESGGGLVQAGGSLRLSCAASGSIFAGYTMGWYRQAPGKERELVATITRSGTSTFYADSVKGRFTISRDNAKNTVYLQMNSLKPEDTAVYYCAADVTARYDYWGQGTQVTVSS” it is “high polyreactivity”.
As for “QVQLVESGGGLVQAGGSLRLSCAASGSIFAIYVMGWYRQAPGKERELVAAISYRSGSTYYADSVKGRFTISRDNAKNTVYLQMNSLKPEDTAVYYCAATSRYYTFGYWGQGTQVTVSS”, the entry is “low polyreactivity”.
